{
  "source": "patent US20240067728A1",
  "key": {"[1]": {"target": "PD-L1 on CHO-PD-L1 cells (Promega PD-1/PD-L1 Blockade Bioassay) (UniProt Q9NZQ7)", "sequence (Q9NZQ7 19-290 limits assumed)": "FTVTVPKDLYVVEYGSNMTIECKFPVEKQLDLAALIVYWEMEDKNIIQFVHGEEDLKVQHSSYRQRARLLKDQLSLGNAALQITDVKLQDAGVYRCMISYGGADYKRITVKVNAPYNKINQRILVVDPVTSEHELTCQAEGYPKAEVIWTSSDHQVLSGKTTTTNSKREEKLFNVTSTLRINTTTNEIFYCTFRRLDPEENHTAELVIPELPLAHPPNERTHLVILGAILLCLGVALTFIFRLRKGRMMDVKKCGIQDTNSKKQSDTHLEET"}, "[2]": {"target": "PD-L1-His antigen (human) (UniProt Q9NZQ7)", "sequence (Q9NZQ7 other isoform, or with tags, fused parts or gaps limits assumed)": "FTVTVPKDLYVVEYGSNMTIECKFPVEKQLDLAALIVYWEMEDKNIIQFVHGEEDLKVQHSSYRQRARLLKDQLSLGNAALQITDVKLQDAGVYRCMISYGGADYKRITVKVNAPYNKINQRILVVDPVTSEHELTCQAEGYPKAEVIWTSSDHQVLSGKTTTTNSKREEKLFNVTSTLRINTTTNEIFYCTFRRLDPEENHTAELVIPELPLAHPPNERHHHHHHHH", "test": "SPR (Biacore T200), PD-L1-His immobilised on chip, antibody as mobile phase, 1:1 Binding fit"}},
  "data": [
    {"substance": "ATE antibody (amino acid sequence identical to atezolizumab)", "values": [
      {"measurement": "EC50 (luciferase reporter, PD-1/PD-L1 blockade MOA assay; blocked partner: PD-1 on Jurkat-PD1 cells)", "setting": "[1]", "result": 0.087, "unit": "µg/mL"},
      {"measurement": "Kd", "setting": "[2]", "result": 1.84, "unit": "nM"}
    ]}
  ]
}
